Experimental data as given in patent publication EP4617284A1 (Shanghai Novamab Biopharmaceuticals Co., Ltd., dated 2025).
Where “and” joins values, the source holds several entries; their conditions need not be identical. Equal values may be shown once.

Tests used:
[1] = biological target: T1, recombinant human IL-13 (human, UniProt P35225 35-146, limits assumed); experiment: cell-based or functional assay
[2] = biological target: T1, recombinant human IL-13; experiment: cell-based or functional assay; remark: listed apart in the source
[3] = biological target: T2, human serum albumin (human, UniProt P02768 25-609); experiment: HSA binding activity, pH 5.5; method not described
T2 construct: also called HSA

[4] = biological target: T2, human serum albumin; experiment: HSA binding activity, pH 7.4; method not described
[5] = biological target: T1, recombinant human IL-13; experiment: cell-based or functional assay; remark: listed apart in the source

T1 sequence (P35225 35-146 limits assumed): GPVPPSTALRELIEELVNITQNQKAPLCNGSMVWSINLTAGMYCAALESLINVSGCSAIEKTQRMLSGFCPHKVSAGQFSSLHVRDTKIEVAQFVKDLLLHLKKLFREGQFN

| Binder | Activity IC50 (µg/mL), HEK-Blue IL-4/IL-13 cells [1] | EC50 [3] | EC50 [4] | IL-13 functional activity IC50 [5] | further results |
| --- | --- | --- | --- | --- | --- |
| MY9470 (VHH) EVQLLESGGGLVQPGESLRLSCEVSGHTHTNYCMGWFRQAPGKGLEGVAAIDTDGSTTYADSVKGRFTISKDNAKNTLYLQMNSLKPEDTAMYYCMAEDFRDEYAPEPRLSSGGYCSIGYGMDYWGKGTLVTVSSGGGGSGGGGSGGGGSGGGGSEVQLLESGGGLVQPGESLRLSCEVSGHTHTNYCMGWFRQAPGKGLEGVAAIDTDGSTTYADSVKGRFTISKDNAKNTLYLQMNSLKPEDTAMYYCMAEDFRDEYAPEPRLSSGGYCSIGYGMDYWGKGTLVTVSS | 1.75 µg/mL |  |  |  |  |
| MY9293 (VHH) VHH: EVQLLESGGGLVQPGESLRLSCEVSGHTHTNYCMGWFRQAPGKGLEGVAAIDTDGSTTYADSVKGRFTISKDNAKNTLYLQMNSLKPEDTAMYYCMAEDFRDEYAPEPRLSSGGYCSIGYGMDYWGKGTLVTVSS |  |  |  |  | Humanized nanobody IC50 (µg/mL), HEK-Blue IL-4/IL-13 cells [2]: 1.05 µg/mL |
| MY9466 (VHH) VHH: EVQLLESGGGLVQPGESLRLSCEVSGHTHTNYCMGWFRQAPGKGLEGVAAIDTDGSTTYADSVKGRFTISKDNAKNTLYLQMNSLKPEDTAMYYCMAEDFRDEYAPEPRLSSGGYCSIGYGMDYWGKGTLVTVSS | 0.0038 µg/mL |  |  |  |  |
| HuNb3-11 (VHH, also called HSA HuNb3-11; Control antibody 3) VHH: EVQLQESGGGLVEPGGSLRLSCVASGFTFQHYAMSWVRQAPGKGLEWVSSISMVGGGTSYADSVKGRFTMSRDNAKNTLYLQLNSLKSEDTAMYYCVRGWHPDVPRPLGQGTLVTVSS |  | 0.164 µg/mL | 0.11 µg/mL |  |  |
| MY9219 (bispecific antibody, Trivalent long-acting nanobody: two anti-IL-13 VHH and one anti-HSA VHH in one chain; also called HSA HuNb3-11-MY9286-GS20-MY9293-GS20) EVQLQESGGGLVEPGGSLRLSCVASGFTFQHYAMSWVRQAPGKGLEWVSSISMVGGGTSYADSVKGRFTMSRDNAKNTLYLQLNSLKSEDTAMYYCVRGWHPDVPRPLGQGTLVTVSSGGGGSGGGGSGGGGSGGGGSEVQLLESGGGLVQPGGSLRLSCAASGFTFSDYTMTWVRQAPGKGLEWVSTVNPDGDSTFYRDSVKGRFTISRDNAKNTLYLQLSSLKTEDTAMYYCTKASLITWPQSPRGQGTLVTVSSGGGGSGGGGSGGGGSGGGGSEVQLLESGGGLVQPGESLRLSCEVSGHTHTNYCMGWFRQAPGKGLEGVAAIDTDGSTTYADSVKGRFTISKDNAKNTLYLQMNSLKPEDTAMYYCMAEDFRDEYAPEPRLSSGGYCSIGYGMDYWGKGTLVTVSSA |  | 0.0648 µg/mL | 0.0467 µg/mL | 0.0024 µg/mL |  |
| MY9464 (VHH) EVQLLESGGGLVQPGESLRLSCEVSGHTHTNYCMGWFRQAPGKGLEGVAAIDTDGSTTYADSVKGRFTISKDNAKNTLYLQMNSLKPEDTAMYYCMAEDFRDEYAPEPRLSSGGYCSIGYGMDYWGKGTLVTVSSGGGGSGGGGSGGGGSGGGGSEVQLLESGGGLVQPGGSLRLSCAASGFTFSDYTMTWVRQAPGKGLEWVSTVNPDGDSTFYRDSVKGRFTISRDNAKNTLYLQLSSLKTEDTAMYYCTKASLITWPQSPRGQGTLVTVSS | 0.0029 µg/mL |  |  |  |  |
| MY9217 (bispecific antibody, Trivalent long-acting nanobody: two anti-IL-13 VHH and one anti-HSA VHH in one chain; also called MY9286-GS20-HSA HuNb3-11-GS20-MY9293) EVQLLESGGGLVQPGGSLRLSCAASGFTFSDYTMTWVRQAPGKGLEWVSTVNPDGDSTFYRDSVKGRFTISRDNAKNTLYLQLSSLKTEDTAMYYCTKASLITWPQSPRGQGTLVTVSSGGGGSGGGGSGGGGSGGGGSEVQLQESGGGLVEPGGSLRLSCVASGFTFQHYAMSWVRQAPGKGLEWVSSISMVGGGTSYADSVKGRFTMSRDNAKNTLYLQLNSLKSEDTAMYYCVRGWHPDVPRPLGQGTLVTVSSGGGGSGGGGSGGGGSGGGGSEVQLLESGGGLVQPGESLRLSCEVSGHTHTNYCMGWFRQAPGKGLEGVAAIDTDGSTTYADSVKGRFTISKDNAKNTLYLQMNSLKPEDTAMYYCMAEDFRDEYAPEPRLSSGGYCSIGYGMDYWGKGTLVTVSSA |  | 0.0953 µg/mL | 0.0648 µg/mL | 0.0029 µg/mL |  |
| MY9431 (VHH) EVQLLESGGGLVQPGGSLRLSCAASGFTFSDYTMTWVRQAPGKGLEWVSTVNPDGDSTFYRDSVKGRFTISRDNAKNTLYLQLSSLKTEDTAMYYCTKASLITWPQSPRGQGTLVTVSSGGGGSGGGGSGGGGSGGGGSEVQLLESGGGLVQPGESLRLSCEVSGHTHTNYCMGWFRQAPGKGLEGVAAIDTDGSTTYADSVKGRFTISKDNAKNTLYLQMNSLKPEDTAMYYCMAEDFRDEYAPEPRLSSGGYCSIGYGMDYWGKGTLVTVSS | 0.0014 µg/mL |  |  |  |  |
| MY9286 (VHH) VHH: EVQLLESGGGLVQPGGSLRLSCAASGFTFSDYTMTWVRQAPGKGLEWVSTVNPDGDSTFYRDSVKGRFTISRDNAKNTLYLQLSSLKTEDTAMYYCTKASLITWPQSPRGQGTLVTVSS |  |  |  |  | Humanized nanobody IC50 (µg/mL), HEK-Blue IL-4/IL-13 cells [2]: 3.42 µg/mL |
| Lebrikizumab (antibody, V domains shown) VH: QVTLRESGPALVKPTQTLTLTCTVSGFSLSAYSVNWIRQPPGKALEWLAMIWGDGKIVYNSALKSRLTISKDTSKNQVVLTMTNMDPVDTATYYCAGDGYYPYAMDNWGQGSLVTVSS VL: DIVMTQSPDSLSVSLGERATINCRASKSVDSYGNSFMHWYQQKPGQPPKLLIYLASNLESGVPDRFSGSGSGTDFTLTISSLQAEDVAVYYCQQNNEDPRTFGGGTKVEIKR |  |  |  | 0.0076 µg/mL | Control antibody 2 IC50 (µg/mL), HEK-Blue IL-4/IL-13 cells [1]: 0.0043 µg/mL and 0.0041 µg/mL and 0.004 µg/mL |
